Test results from the supplement of paper PMC9170038.

Tested on: K4 kissing-loop RNA reporter
Experiment: apparent KD of K4 kissing-loop reporter; higher = weaker reporter binding
Conditions: Eterna round: R107
Method: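 RNA-MaP round R107: designed RNA switches with theophylline, tryptophan, arginine or FMN aptamers are transcribed on-chip within common flanks. They are titrated with a labelled K4 kissing-loop RNA reporter in RNA-MaP buffer (100 mM Tris pH 7.5, 80 mM KCl, 4 mM MgCl2), without ligand or with the indicated ligand. Median apparent KD per design.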

[1] = input ligand: theophylline 20 uM
[2] = input ligand: tryptophan 2.4 mM
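Also: bound reporter read as fluorescence of individual clusters on recovered sequencing chips by microscopy, with normalized cluster intensities fitted with a binding model.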

Sequence	apparent KD of K4 kissing-loop reporter (input ligand: FMN 200 uM) [nM]	apparent KD of K4 kissing-loop reporter (input ligand: arginine 13.2 mM) [nM]	apparent KD of K4 kissing-loop reporter (input ligand: none) [nM]	apparent KD of K4 kissing-loop reporter [1] [nM]	apparent KD of K4 kissing-loop reporter [2] [nM]
AAUAGGGAUAGUGAUGUUAUCCCUUAUGAUACCAGUGCCAUCGGACACCCUUGGCAGCAUACGGGCAGUGAUGUUGUUCUUGGAG [Exclusion Theophylline A GF 15]	103	75.5	78.6	76.5	79.3
GGAGCCGAUAGUGAUACCAGCCAGUGAUGUUGGCGAAGUCUCAUUUUCGCUCUCGGUAAGGGCCCUUGGCAGCACUUACUCGGAA [Arledied]	105	94	102	95.9	104
UAUGAAGGUGGAGGAUAUUGAUUGAGCCUUGGUCAGGAGUGAUGUUCCGGGAAGCCUUGGGUUCAUCGAGAAGGCCAAGGAUAGU [#09 K4 FMN B Same State]	151	209	221	274	232
AAUAAAAUCACGGCCGCCACUGAUAUCCAUAUUAGGAGUGAUGUUCCUAUGACUAUAUAAUUUAACAGGACCGGGUGAAUAUUUA [JR_SSTryptoB_Sub024]	104	111	107	115	100
UCAGAGAACGAAGGAUAUUGACCUGUUUUAUGCUAUGAGUGAUGUUCUUAGUAUCAGCGAGAUGAUCAAGAAGGUCGGGUUCGAC [theeternabot_sameState_KL_FMN_B_48]	125	174	197	183	152
ACAGUUGCUAGUGAUACCAGACUAGCACUACGUAGUAUGUCAAGUGAUGUUUGACAACUAGUCCCUUGGCAGCGCGAUACGACUG [#12 K4 Theophylline B Same State]	181	152	170	136	169
CCAUCGCUAUUCGAUACCAGUCAUUAAAUCUUUGGUUUAAUAAAGGAGUGAUGUUCCCAAGACCCUUGGCAGCGAAUAGUGAUGG [Theophylline B K4 9]	213	183	198	166	207
GGCUUGCUAGUGAUGUUAGCAUUUUCUGAAGGAGCGCGUGAAAACGCAGGUAGGUCGCAGAACCUUGCCAACUAUUUUAGUUGCC [Ex Arginine A K4 27]	101	113	94.3	97.3	82.4
UGAUACCAGACGGCCGCCACUACACCAGUCAAAGACUGGAUGUGAUGUUCGACCAGUGAUGUUGGUAGGACCGGGUCUGGUAUCU [TrypBX 7 #Palindromic #SwitchBubble #StaticStem]	133	121	127	109	147
UACUAUAUUCUGUCGUUUUUAUUAGUUUGUCAGGAUAUCGUUUAUUCGAGAAGGGACACUAUCUAGUGAUGUUAGAUAUUUCUUU [JR_Nu3_ExcFMNA_Sub030]	77.9	102	92.7	93.2	72.9
AAGUGUGGUCCAGUGAUGUUGGAACCAGAUACCAGCGACAUAGUGCGCCCUUGGCAGCUGGCACACAUGCGCUGCACGACUAGAA [Riusveis]	206	182	207	363	168
CGCGGCCGGCCGGAUACCAGUGACCCGCUGGAAACCGCGGGCCCAGAGUGAUGUUCGGGACACCCUUGGCAGCCGCCUGGGCGUG [#2 Same State - Theophylline B Attempt #2 (HarryS)]	547	309	440	456	397
AGCCGAAAGGCGAGUGCUGUCACUCCGGAAGGAGCGCUCAAAAGAGCAGGUAGGUCGCCGGAGUGAUGUUCCGGUGCAGCACUCA [Omei KL Arginine A Exc B v4]	594	408	580	751	623
UGUGUUGUUGUGAUGUUUGGUGUUGUAGGGCAGGAUAUCGUAGAGGCGAGAAGGGCUUGUGGGCGGUAUGAGUGAUGUUUGUAGG [cfiuxmullin]	116	77.6	124	143	101
GCGCCGGUCUGCUUUAGAGUGAUGUUCUCCCGAGGACCGGUACGGCCGCCACUCGGCCAACGCUAUUAUCUUUGAUCCGCGGUGC [theeternabot_exclusion_KL_Trp_A_41]	1300	840	1000	1120	948
UGUACCGAGUCAGGAUAUGGCGUCGAAAGACGAAUGCUAGUGAUGUUAGGGAUCUGCGAAAGCAGUCCAGAAGGGACUUGGUACU [FmnBS 26 G36]	381	471	653	634	649
AUGUAUGAAUUAGGAUAUCGUGAGCCAUGCAUAUAUAUGAUAAAUGGAUAUGUCGUAGUGAUGUUACGAGAAGGAGUGUGGAGUA [KL-XFMN-B2]	69.2	73.6	74.7	90	50.6
UGGAGUUGACGAAAAGUCAACUCCUGGGAAGGAGCGGACGAAAGUCCAGGUAGGUCGCCCACUACCAGUGAUGUUGGUACCUAAA	274	320	257	307	206
CGCAGUGAUGUUGCGAGUUUGAUCAGGGAAGGAGCGGCUCAGAAGCCAGGUAGGUCGCCCACGCAGUGAUGUUGUGUAUUCGGGU [Exclusion Arginine A GF 1]	96.9	88.1	87.9	89.1	79.3
CUCGAGUGAUGUUCGAUUAUUUAUACAGAUACCAGUGAAUUUUAACACCCUUGGCAGCUGGUUGUAUCAUUGUUUUUUACAAAAG [JR_ExcTheophyA_Sub007]	113	167	117	195	100
UCAUCAUGAUGGUAGUAACCGCAUUGGGAGCGAGGACCGGUACGGCCGCCACUCGAAAUGUACAUAGCAGUAGUGAUGUUGCUGC [theeternabot_sameState_KL_Trp_A_47]	134	125	121	116	115
AUCAUUAGUUCGGCCGCCACUCCAGUGAUGUUGGAGGGACGCAUAAUAUGCGCGCGGCCAACUAGGAGGACCGGGAACUUUAAGC [Intionge]	120	122	118	126	103

Sequence	apparent KD of K4 kissing-loop reporter (input ligand: FMN 200 uM) [nM]	apparent KD of K4 kissing-loop reporter (input ligand: arginine 13.2 mM) [nM]	apparent KD of K4 kissing-loop reporter (input ligand: none) [nM]	apparent KD of K4 kissing-loop reporter [1] [nM]	apparent KD of K4 kissing-loop reporter [2] [nM]
AGACUAUCGUCAAAGACGGUAGUCAAAAGUGAGGAUAUAGUGAUGUUUAGAAGGCACUAAGACUGUAUCGAAUAGAUACGGUCAA [FmnA 1 #K4BetweenAptamer #OpenEnded]	2120	1320	2120	1250	1920
GGCACUUUUGCUUGGAACCGUCAAGCUCGAUAGGAUAUGCCGAAAGGCAGAAGGAUUGACCUACAGAGUGAUGUUCUGCGUGCCU	791	378	830	288	408
AGUCCACUCUAAAGAGUGGACCUAAGGGAUACCAGUGAUGUUGGUCACCCUUGGCAGCCCGCUGUCAUCGAUAAAGAUGGCAGAA	136	121	120	147	120
AGGAUAUAGUGAUGUUAUAUAAGAAGAAAACGAGGACCGGUACGGCCGCCACUCGAAGCGGCUACUAAGAGGGAAAGAAGAGGAA [ExTryptoA.A]	174	181	215	294	143
CUGGGUUGACGAAAAGUCAACAAAAGAGAAGGAGCGCACGAAAGUGCAGGUAGGUCGCUCAGUCCAGUGAUGUUGGAUCAUCCAG [#SwitchBubble 11 #K4Late]	324	502	484	454	346
CCGCCAUCAUCAGAUACCAGACUGAUGGCGGUAACCGCCAAGCGAGUGAUGUUCGCAUCAGUCCCUUGGCAGCUGAUGAAGACUG [Theo B SS t4]	255	82.4	110	104	154
AGCGUCCCUACGGCCGCCACUGGGAGUGAUGUUCCCAGGUUAGGCCUGAGGAUACUAUGGAUCGCCAGGACCGGGUAGCGACCAA [Zaarin]	93.4	71.8	85.4	97.2	83.5
AGUUAUGUAUCAGGAUAUUAGUGAUGUUUGUUUUUGUUAGUGAUGUUGAUAUUUGUUUUAUGUAUUUAAGAAGGGAUUGAGAUGU [qsszmullin]	68.2	20.5	39.1	29.4	52.4
AAAAUAAACCAGUGAUGUUGGUGUCCAGAUACCAGCGAUAAAAGUCGCCCUUGGCAGCUGUGGACGUACAAAAUAAGUACGUCCU [MatMod 2 - Jieux - Same State - Theophylline A]	703	533	872	529	678
UGAUUUAACUGAAGGAGCGGCAAUUGAUAAGUAAAUAUAGUGAUGUUAUAUAAGAGAGAGAGCCAGGUAGGUCGCAGAGGGAGGA [ExArgB.I]	205	138	167	170	140
AGGAUGUAGUGAUGUUAUAUAAGAAGUAAACGAGGACCGGUACGGCCGCCACUCGAAACGGCUACUAGCGCGUUGCGAGGUGUGC [ExTryptoA.Cf]	425	475	808	510	402
GCAGUGAUGUUGCACGAGUAGGCUGGAGUACGAGGACCGGUACGGCCGCCACUCGUACGAUAGUCGCUAAUUUAUGGAAUGGUGA [#08 K4 Tryptophan A Same State]	458	381	551	286	419
UUUAAAUAUAGUGAUGUUAUAUAACAAUGACGAGGACCGGUACGGCCGCCACUCGAGAGAGAUAAUGAUAAAAUACAUAAUUUUC [AstrosSSTrypA#2]	668	746	806	709	474
ACCUACGAUCACAAAAGUGAUUGUAGGAUCUAGGAUAUGCUGAAAAGCAGAAGGAGAGUGAUGUUCUCAACUCACGAAAGUGAGA [FmnAX 1 #OpenEnded #K4Late]	354	184	183	182	173
UGUCAUUGGUCGGCCGCCACUUCAAGGUCAAAGACCAAAGAGUGAUGUUCUAAGACGAAAGUCAGAAGGACCGGGACCGAUGACU [TrypBS 10 #SwitchBubble #K4Middle]	168	67.7	128	223	1220
UAUACGAAGCAGUGAUGUUGCUUAUGAGAAGGAGCGCACGAAAGUGCAGGUAGGUCGCUCAGCCAUGUGGACGAAAACGUCCACA [whbob_SS_Arginine_A_sa110]	108	130	109	137	93
GUGGUACAGGCGGCCGCCACUAGUGAUGUUAGUGAUAGAAGAUAUAGUAAAUAUCGGCAUUUAGAUAGGACCGGGCCUGGUGGUG [xxfxcmullin]	353	245	305	309	267
AAGCAGUCACUCGAAUCCAUCGAAGAUGGGCGAGGACCGGUACGGCCGCCACUCGGAGUGAUGUUCCAAAGACUGCAAAAUAAAA	451	378	306	550	136
UGACUGGACUGAAGGAGCGCUUAACUCCUAGUGAUGUUAGGAAAACGAGACAAAGUCUCGAAGCAGGUAGGUCGCAGUCUAGUCU	152	123	151	158	132
AGAAGAGUGAUGUUCUUCUAUAUCUCAGAAGGAGCGACAUAAAUGUCAGGUAGGUCGCUGAGAUGAAAUCUCACACAGAUCUUGG [Arg A SS t8]	127	149	154	182	109
CUUAGGAGUGGUGUUGAUUAGGGAGCGGAAGGAGCGCCAAUGAUGGCAGGUAGGUCGCCGGAAUAUAGUGAUGUUAUAUAGAGGG [ExArgA.Q]	273	252	592	290	222
